Laboratory results from article PMC7062783, “Endophilin-A coordinates priming and fusion of neurosecretory vesicles via intersectin” (Nature Communications, 2020).

Target: T1, recombinant rat endophilin A1 FL (GST fusion) (rat, UniProt O35179 1-352)
T1 construct: endophilin A1 (endophilin 1), rat, full length, cloned into pGEX4T-1; also called endophilin 1
Assay: pull-down; 50 or 100 ug GST-fusion protein coupled to GST-Bind resin, incubated with 10 ug His6-tagged recombinant protein in 1 ml for 1 h at 4 °C; extensive washes; Coomassie staining and/or SDS-PAGE and immunoblotting
Conditions: both partners purified

T1 sequence (O35179 whole entry, the tested form may be a part): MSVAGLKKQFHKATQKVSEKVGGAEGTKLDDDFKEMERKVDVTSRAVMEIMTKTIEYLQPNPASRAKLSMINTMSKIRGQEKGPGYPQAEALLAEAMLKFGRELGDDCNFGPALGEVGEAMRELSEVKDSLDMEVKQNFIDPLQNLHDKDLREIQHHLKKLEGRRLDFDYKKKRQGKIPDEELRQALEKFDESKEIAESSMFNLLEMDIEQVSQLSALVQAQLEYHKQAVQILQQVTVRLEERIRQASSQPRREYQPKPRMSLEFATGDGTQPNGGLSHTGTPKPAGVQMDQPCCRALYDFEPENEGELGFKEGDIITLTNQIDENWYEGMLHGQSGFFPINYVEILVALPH

B1: recombinant human intersectin-1 SH3B (aa 914-970), His6-tagged (domain or fragment, UniProt Q15811 914-970, looked up)
chain: EGLQAQALYPWRAKKDNHLNFNKNDVITVLEQQDMWWFGEVQGQKGWFPKSYVKLIS
notes: intersectin-1, human, SH3B domain, aa 914-970, cloned in pET28a; also called ITSN-1; ITSN1
B1: binds.
